Experimental data reported in CN116082499A (DONGGUAN PENGZHI BIOTECHNOLOGY CO LTD, dated 2023).
Substitutions are numbered along the chain they refer to.

T1: DENV-IV抗原(一种NS1蛋白，购自菲鹏) (dengue virus serotype 4 (DENV-IV), UniProt P09866 775-1126, limits assumed)
T1 construct: also called DENV-IV antigen
T1 sequence (looked up): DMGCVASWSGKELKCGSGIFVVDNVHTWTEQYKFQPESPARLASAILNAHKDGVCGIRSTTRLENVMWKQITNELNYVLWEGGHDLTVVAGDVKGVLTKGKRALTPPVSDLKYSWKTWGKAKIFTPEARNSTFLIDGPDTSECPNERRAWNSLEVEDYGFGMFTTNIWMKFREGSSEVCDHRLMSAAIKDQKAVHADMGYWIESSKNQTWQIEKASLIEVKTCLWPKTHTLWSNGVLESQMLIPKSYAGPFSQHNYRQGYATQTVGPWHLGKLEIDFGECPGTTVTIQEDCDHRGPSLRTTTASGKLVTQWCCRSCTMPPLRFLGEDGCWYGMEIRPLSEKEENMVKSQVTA

B1: DF-5M32RMb1 (antibody, mouse IgG1, kappa, V domains shown)
VH: QVQLQQSGAELARPGASVKLSCKASGYTFINYWMQWVKQRPGQGLEWIGAIYPGDGDTRYTQNFKGKAALTADKSSSTAYMQLSSLASEDSAVYYCATGTEGILDYWGQGTSVTVSS
VL: DAVMTQTPLTLSVLIGQPASLSCKSSQSLLESDGKTYLNWLFQRPGQSPKRLIYLVSKLESGVPDRFTGSGSGTEFTLKISRVEAEDLGVYYCWQATHHPLTFGTGTNLELKR
notes: also called Anti-DF 5M32; Anti-DF 5M32单克隆抗体 (recombinant)
B2: DF-5M32RMb2 (antibody, mouse IgG1, kappa, V domains shown)
VH: B1 VH with I30L, I103L
VL: B1 VL
notes: also called DF-8F13RMb2
B3: DF-5M32RMb3 (antibody, mouse IgG1, kappa, V domains shown)
VH: B1 VH with I30L
VL: B1 VL
notes: also called DF-8F13RMb3
B4: DF-5M32RMb4 (antibody, mouse IgG1, kappa, V domains shown)
VH: B1 VH with I103L
VL: B1 VL
notes: also called DF-8F13RMb4

molecular target: T2, DENV抗原 (DENV阳性血清) (dengue virus (DENV), serotype ); test: sandwich ELISA, antibody at 0 ng/ml (blank without antibody), goat anti-mouse IgG, DENV-positive serum, HRP-labelled DENV mAb
T2 construct: also called DENV antigen in DENV-positive serum

| Binder | OD (450nm, 参考630nm) |
| --- | --- |
| B1 | 0.039 OD |
| B2 | 0.031 OD |
| B3 | 0.043 OD |
| B4 | 0.032 OD |

molecular target: T2, DENV抗原 (DENV阳性血清); test: sandwich ELISA, antibody at 0.78125 ng/ml captured on goat anti-mouse IgG, DENV-positive serum, HRP-labelled DENV mAb

| Binder | OD (450nm, 参考630nm) |
| --- | --- |
| B1 | 0.489 OD |
| B2 | 0.471 OD |
| B3 | 0.479 OD |
| B4 | 0.482 OD |

molecular target: T2, DENV抗原 (DENV阳性血清); test: sandwich ELISA, antibody at 6.25 ng/ml captured on goat anti-mouse IgG, DENV-positive serum, HRP-labelled DENV mAb

| Binder | OD (450nm, 参考630nm) |
| --- | --- |
| B1 | 1.52 OD |
| B2 | 1.47 OD |
| B3 | 1.5 OD |
| B4 | 1.49 OD |

molecular target: T2, DENV抗原 (DENV阳性血清); test: sandwich ELISA, antibody at 1.5625 ng/ml captured on goat anti-mouse IgG, DENV-positive serum, HRP-labelled DENV mAb

| Binder | OD (450nm, 参考630nm) |
| --- | --- |
| B1 | 0.654 OD |
| B2 | 0.603 OD |
| B3 | 0.622 OD |
| B4 | 0.631 OD |

molecular target: T2, DENV抗原 (DENV阳性血清); test: sandwich ELISA, antibody at 12.5 ng/ml captured on goat anti-mouse IgG, DENV-positive serum, HRP-labelled DENV mAb

| Binder | OD (450nm, 参考630nm) |
| --- | --- |
| B1 | 2.1 OD |
| B2 | 2.04 OD |
| B3 | 1.97 OD |
| B4 | 2.01 OD |

molecular target: T2, DENV抗原 (DENV阳性血清); test: sandwich ELISA, antibody at 3.125 ng/ml captured on goat anti-mouse IgG, DENV-positive serum, HRP-labelled DENV mAb

| Binder | OD (450nm, 参考630nm) |
| --- | --- |
| B1 | 0.963 OD |
| B2 | 0.96 OD |
| B3 | 0.952 OD |
| B4 | 0.923 OD |

molecular target: T1, DENV-IV抗原(一种NS1蛋白，购自菲鹏); test: not given

| Binder | Kd | koff | kon |
| --- | --- | --- | --- |
| B1 | 59.6 nM | 0.00128 s⁻¹ | 21400 M⁻¹ s⁻¹ |
| B2 | 57.8 nM | 0.00184 s⁻¹ | 31900 M⁻¹ s⁻¹ |
| B3 | 63.6 nM | 0.00186 s⁻¹ | 29300 M⁻¹ s⁻¹ |
| B4 | 52.9 nM | 0.00176 s⁻¹ | 33200 M⁻¹ s⁻¹ |
